Source: the supplement of paper PMC10567573

B1: HDAC6 (parent)
chain: DLMETTQYMNEGELRVLADTYDSV
B2: KCNA3 (parent)
chain: YQSGGRIRRPVNVPIDIFSEEIRF

Variants of: B1
Test: protein stability index of a GFP-peptide fusion (GPS, HEK-293T) (PSI 1-6); higher = more stable
Conditions: c terminus: a fixed tail appended
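Also: lentivirally expressed fusions sorted by FACS into six bins by GFP to DsRed ratio, PSI derived from sequencing read proportions per bin multiplied by bin number.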

Variant	protein stability index
DLMETTQYMNEGETRVLADTYDSV [L14T]	3.56
DLMETTQYMNEGECRVLADTYDSV [L14C]	1.97
DLMETTQYMNEGEFRVLADTYDSV [L14F]	1.74
DLMETTQYMNEGEPRVLADTYDSV [L14P]	4.29
RLMETTQYMNEGELRVLADTYDSV [D1R]	3.01
NLMETTQYMNEGELRVLADTYDSV [D1N]	2.18
QLMETTQYMNEGELRVLADTYDSV [D1Q]	2.25
FLMETTQYMNEGELRVLADTYDSV [D1F]	2.46
ELMETTQYMNEGELRVLADTYDSV [D1E]	2.22
HLMETTQYMNEGELRVLADTYDSV [D1H]	1.53
DLMETTQYMSEGELRVLADTYDSV [N10S]	1.74
DLMETTQYMPEGELRVLADTYDSV [N10P]	4.49
DLMETTQYMREGELRVLADTYDSV [N10R]	1.75
DLMETTQYMEEGELRVLADTYDSV [N10E]	2.91
DLMETTQYMCEGELRVLADTYDSV [N10C]	1.88
DLMETTAYMNEGELRVLADTYDSV [Q7A]	1.53
DLMETTVYMNEGELRVLADTYDSV [Q7V]	1.67
DLMETTGYMNEGELRVLADTYDSV [Q7G]	2.05
DLMETTSYMNEGELRVLADTYDSV [Q7S]	2.02
DLMETTRYMNEGELRVLADTYDSV [Q7R]	1.14
DLMETTHYMNEGELRVLADTYDSV [Q7H]	1.14
DLMETTQYMNEGELRVLCDTYDSV [A18C]	2.47

Variant	protein stability index
DLMETTQYMNEGELRVLHDTYDSV [A18H]	2.06
DLMETTQYMNEGELRVLSDTYDSV [A18S]	2.09
DLMETTQYMNEGELRVLLDTYDSV [A18L]	1.75
DLMETTQYMNEGELRVLNDTYDSV [A18N]	1.65
DLMETTQYMNEGELRVLVDTYDSV [A18V]	2.4
DLMETTQYMNEGELRVLYDTYDSV [A18Y]	1.87
DLMETTQYMNEGELRVLEDTYDSV [A18E]	2.11
DLMETTQYMNEVELRVLADTYDSV [G12V]	2.85
DLMETTQYMNETELRVLADTYDSV [G12T]	3.49
DLMETTQYMNEFELRVLADTYDSV [G12F]	2.85
DLMETTQYMNEDELRVLADTYDSV [G12D]	4.79
DLMETTQYMNEKELRVLADTYDSV [G12K]	3.87
DLMETTQYMNELELRVLADTYDSV [G12L]	3.56
DLMETTQYMNEGVLRVLADTYDSV [E13V]	3.53
DLMETTQYMNEGLLRVLADTYDSV [E13L]	2.63
DLMETTQYMNEGSLRVLADTYDSV [E13S]	3.56
DLMETTQYMNEGALRVLADTYDSV [E13A]	3.38
DLMETTQYMNEGHLRVLADTYDSV [E13H]	3.2
DLMETTQYMNEGQLRVLADTYDSV [E13Q]	4.13
DLMETTQYMNEGPLRVLADTYDSV [E13P]	3.74
DLMETTQYMNEGELRVLAPTYDSV [D19P]	2.67
DLMETTQYMNEGELRVLASTYDSV [D19S]	2.12

Variant	protein stability index
DLMETTQYMNEGELRVLAITYDSV [D19I]	2.55
DLMETTQLMNEGELRVLADTYDSV [Y8L]	4.27
DLMETTQSMNEGELRVLADTYDSV [Y8S]	5.09
DLMETTQFMNEGELRVLADTYDSV [Y8F]	1.65
DLMETTQYMNEGELRYLADTYDSV [V16Y]	3.9
DLMETTQYMNEGELRDLADTYDSV [V16D]	4.54
DLMETTQYMNEGELRHLADTYDSV [V16H]	4.62
DLMETTQYMNEGELRKLADTYDSV [V16K]	3.91
DLMETTQYMNEGELRSLADTYDSV [V16S]	4.42
DLMETTQYMNEGELRCLADTYDSV [V16C]	2.72
DLMETTQYMNEGELRILADTYDSV [V16I]	2.1
DLMETTQYMNEGELRRLADTYDSV [V16R]	4.01
DLMERTQYMNEGELRVLADTYDSV [T5R]	2.56
DLMENTQYMNEGELRVLADTYDSV [T5N]	2.32
DLMEKTQYMNEGELRVLADTYDSV [T5K]	2.9
DLMEITQYMNEGELRVLADTYDSV [T5I]	2.67
DLMETTQYMNEGELKVLADTYDSV [R15K]	2.27
DLMETTQYMNEGELPVLADTYDSV [R15P]	4.61
DLMETTQYMNEGELMVLADTYDSV [R15M]	1.89
DLMETTQYMNEGELIVLADTYDSV [R15I]	2.2
DLMETTQYMNEGELLVLADTYDSV [R15L]	1.5
DLMGTTQYMNEGELRVLADTYDSV [E4G]	1.7

Variant	protein stability index
DLMHTTQYMNEGELRVLADTYDSV [E4H]	2.18
DLMYTTQYMNEGELRVLADTYDSV [E4Y]	1.51
DLMDTTQYMNEGELRVLADTYDSV [E4D]	2.52
DLMETTQYMNPGELRVLADTYDSV [E11P]	3.65
DLMETTQYMNFGELRVLADTYDSV [E11F]	2
DLMETTQYMNCGELRVLADTYDSV [E11C]	2.47
DLMETTQYMNLGELRVLADTYDSV [E11L]	2.6
DLMETTQYMNAGELRVLADTYDSV [E11A]	2.15
DLMETTQYMNEGELRVLADTYDEV [S23E]	1.97
DLMETTQYMNEGELRVLADTYDYV [S23Y]	1.58
DLMETTQYMNEGELRVLADTYDMV [S23M]	2.33
DLMETTQYMNEGELRVLADTYDWV [S23W]	3.46
DLMETTQYMNEGELRVLADTYDDV [S23D]	1.92
DLMETTQYMNEGELRVLADTYDCV [S23C]	2.48
DLMETTQYMNEGELRVLADTDDSV [Y21D]	3.31
DLMETTQYMNEGELRVLADTIDSV [Y21I]	1.79
DLMETTQYMNEGELRVLADTWDSV [Y21W]	2
DLMETTQYMNEGELRVLADTADSV [Y21A]	2.69
DLMETYQYMNEGELRVLADTYDSV [T6Y]	1.66
DLMETMQYMNEGELRVLADTYDSV [T6M]	1.63
DLMETAQYMNEGELRVLADTYDSV [T6A]	1.75
DLMETTQYMNEGELRVVADTYDSV [L17V]	1.64

Variant	protein stability index
DLMETTQYMNEGELRVNADTYDSV [L17N]	4.55
DLMETTQYMNEGELRVDADTYDSV [L17D]	5.03
DLMETTQYMNEGELRVSADTYDSV [L17S]	4.34
DLMETTQYMNEGELRVFADTYDSV [L17F]	2.05
DLMETTQYMNEGELRVHADTYDSV [L17H]	2.12
DLMETTQYMNEGELRVGADTYDSV [L17G]	3.86
DLMETTQYMNEGELRVKADTYDSV [L17K]	2.75
DRMETTQYMNEGELRVLADTYDSV [L2R]	4.52
DHMETTQYMNEGELRVLADTYDSV [L2H]	5.04
DMMETTQYMNEGELRVLADTYDSV [L2M]	3.77
DLMETTQYMNEGELRVLADAYDSV [T20A]	2.49
DLMETTQYMNEGELRVLADEYDSV [T20E]	2.41
DLMETTQYMNEGELRVLADHYDSV [T20H]	2.71
DLMETTQYMNEGELRVLADNYDSV [T20N]	2.21
DLMETTQYMNEGELRVLADFYDSV [T20F]	2.27
DLMETTQYMNEGELRVLADSYDSV [T20S]	2.13
DLMETTQYMNEGELRVLADQYDSV [T20Q]	2.58
DLMETTQYMNEGELRVLADTYQSV [D22Q]	2.29
DLMETTQYMNEGELRVLADTYLSV [D22L]	2.14
DLMETTQYMNEGELRVLADTYESV [D22E]	1.57
DLMETTQYMNEGELRVLADTYPSV [D22P]	1.92
DLMETTQYMNEGELRVLADTYRSV [D22R]	2.91

Variant	protein stability index
DLMETTQYMNEGELRVLADTYNSV [D22N]	1.48
DLMETTQYMNEGELRVLADTYTSV [D22T]	1.65
DLMETTQYINEGELRVLADTYDSV [M9I]	4.14
DLMETTQYNNEGELRVLADTYDSV [M9N]	4.12
DLMETTQYWNEGELRVLADTYDSV [M9W]	3.37
DLMETTQYGNEGELRVLADTYDSV [M9G]	4.71
DLMETTQYTNEGELRVLADTYDSV [M9T]	4.82
DLMETTQYMNEGELRVLADTYDSH [V24H]	2.78
DLMETTQYMNEGELRVLADTYDSY [V24Y]	1.49
DLMETTQYMNEGELRVLADTYDSC [V24C]	1.42
DLMETTQYMNEGELRVLADTYDSD [V24D]	2.41
DLQETTQYMNEGELRVLADTYDSV [M3Q]	3.29
DLDETTQYMNEGELRVLADTYDSV [M3D]	4.6
DLAETTQYMNEGELRVLADTYDSV [M3A]	3.05
DLNETTQYMNEGELRVLADTYDSV [M3N]	4.55
DLSETTQYMNEGELRVLADTYDSV [M3S]	3.48
DLHETTQYMNEGELRVLADTYDSV [M3H]	3.91
DLYETTQYMNEGELRVLADTYDSV [M3Y]	2.74
DLKETTQYMNEGELRVLADTYDSV [M3K]	4.13
DLIETTQYMNEGELRVLADTYDSV [M3I]	2.13
DLLETTQYMNEGELRVLADTYDSV [M3L]	1.91

Variants of: B2
Test: as above
Conditions: c terminus: a fixed tail appended

Variant	protein stability index
YPSGGRIRRPVNVPIDIFSEEIRF [Q2P]	2.07
YDSGGRIRRPVNVPIDIFSEEIRF [Q2D]	2.74
YRSGGRIRRPVNVPIDIFSEEIRF [Q2R]	2.07
YKSGGRIRRPVNVPIDIFSEEIRF [Q2K]	1.92
YISGGRIRRPVNVPIDIFSEEIRF [Q2I]	1.22
YLSGGRIRRPVNVPIDIFSEEIRF [Q2L]	2.41
YASGGRIRRPVNVPIDIFSEEIRF [Q2A]	2.35
YWSGGRIRRPVNVPIDIFSEEIRF [Q2W]	1.87
YGSGGRIRRPVNVPIDIFSEEIRF [Q2G]	2.7
YESGGRIRRPVNVPIDIFSEEIRF [Q2E]	2.33
YSSGGRIRRPVNVPIDIFSEEIRF [Q2S]	1.96
YCSGGRIRRPVNVPIDIFSEEIRF [Q2C]	2.19
YMSGGRIRRPVNVPIDIFSEEIRF [Q2M]	2.04
YNSGGRIRRPVNVPIDIFSEEIRF [Q2N]	2.52
YFSGGRIRRPVNVPIDIFSEEIRF [Q2F]	1.79
YHSGGRIRRPVNVPIDIFSEEIRF [Q2H]	3.93
YVSGGRIRRPVNVPIDIFSEEIRF [Q2V]	1.94
YTSGGRIRRPVNVPIDIFSEEIRF [Q2T]	2.47
YYSGGRIRRPVNVPIDIFSEEIRF [Q2Y]	2.46

Variant	protein stability index
QQSGGRIRRPVNVPIDIFSEEIRF [Y1Q]	2.76
NQSGGRIRRPVNVPIDIFSEEIRF [Y1N]	2.89
AQSGGRIRRPVNVPIDIFSEEIRF [Y1A]	3.31
HQSGGRIRRPVNVPIDIFSEEIRF [Y1H]	2.98
GQSGGRIRRPVNVPIDIFSEEIRF [Y1G]	2.83
KQSGGRIRRPVNVPIDIFSEEIRF [Y1K]	2.77
VQSGGRIRRPVNVPIDIFSEEIRF [Y1V]	2.58
DQSGGRIRRPVNVPIDIFSEEIRF [Y1D]	3.1
IQSGGRIRRPVNVPIDIFSEEIRF [Y1I]	2.53
FQSGGRIRRPVNVPIDIFSEEIRF [Y1F]	1.83
MQSGGRIRRPVNVPIDIFSEEIRF [Y1M]	2.42
EQSGGRIRRPVNVPIDIFSEEIRF [Y1E]	2.74
PQSGGRIRRPVNVPIDIFSEEIRF [Y1P]	3.43
SQSGGRIRRPVNVPIDIFSEEIRF [Y1S]	3.58
WQSGGRIRRPVNVPIDIFSEEIRF [Y1W]	2.48
LQSGGRIRRPVNVPIDIFSEEIRF [Y1L]	2.08
CQSGGRIRRPVNVPIDIFSEEIRF [Y1C]	2.49
RQSGGRIRRPVNVPIDIFSEEIRF [Y1R]	2.67
TQSGGRIRRPVNVPIDIFSEEIRF [Y1T]	2.55

Variant	protein stability index
YQKGGRIRRPVNVPIDIFSEEIRF [S3K]	2.24
YQQGGRIRRPVNVPIDIFSEEIRF [S3Q]	2.44
YQRGGRIRRPVNVPIDIFSEEIRF [S3R]	2.59
YQMGGRIRRPVNVPIDIFSEEIRF [S3M]	1.56
YQNGGRIRRPVNVPIDIFSEEIRF [S3N]	2.23
YQPGGRIRRPVNVPIDIFSEEIRF [S3P]	2.22
YQLGGRIRRPVNVPIDIFSEEIRF [S3L]	2.23
YQGGGRIRRPVNVPIDIFSEEIRF [S3G]	1.81
YQEGGRIRRPVNVPIDIFSEEIRF [S3E]	2.93
YQCGGRIRRPVNVPIDIFSEEIRF [S3C]	1.46
YQVGGRIRRPVNVPIDIFSEEIRF [S3V]	2.01
YQAGGRIRRPVNVPIDIFSEEIRF [S3A]	2.82
YQIGGRIRRPVNVPIDIFSEEIRF [S3I]	1.58
YQYGGRIRRPVNVPIDIFSEEIRF [S3Y]	2.21
YQDGGRIRRPVNVPIDIFSEEIRF [S3D]	2.41
YQFGGRIRRPVNVPIDIFSEEIRF [S3F]	1.64
YQHGGRIRRPVNVPIDIFSEEIRF [S3H]	2.84
YQWGGRIRRPVNVPIDIFSEEIRF [S3W]	2.27
YQTGGRIRRPVNVPIDIFSEEIRF [S3T]	2.06
